Assay results as given in the DeepSol protein solubility set.

Assay: soluble on expression in E. coli; label from the status in PepcDB or PDB records

| Sequence | soluble on expression in E. coli |
| --- | --- |
| MEIDDCIRDNIPWANLSPDIKVILGNSSKEYEKRVLEYSIQNQLRYKGNLIRHMKKSEEAYYEQLLRFSESHLMLYPYHLSDITVTEMRLSPFSYYANILTEMLNTEKSYDSLPNFTAADAVRLLGIGRNQYIELMNQTRSNRKFLRRSKSARELLPQKPTKMIVESWWRTNVGSILESDVKTLNEEEKQVIDRLLDTNVAIPAGLLKYSVVTSLYDRGLIYFDVPVYDNDYIYVAPLDGFVMNRVLGDYFETLLYKIFVAIDDQTTVLEMSQILHIDLQLVKNAISVFCRLGFARKRVTGGENLTIHTSWTSNSTVTTPMSPISPMSSLITSTSDELNELTKTLLRGDDDETDDALSPVSEDSALRASSPNPSLNNSVESFQSLSTSQTASDLSGSSGTVNRAAFIFDSTLTAFLMMGNLSASLKGHAVALFEVGKLADEQMKEFLEQLESVNQFAEGDAQRYSMHATALLDSLKSLRQEREADLIRGESLYTLDEKSRQRVLQKSYGILVAMAPLSIEACAIPVQSVPLIGPPNAETCSPWFRLSIYSACSSGPPSVFLPHGTRLTTLPRVLQSFQHHRFLVSSTKHEPHIMTAQNALFALNDMLVYSSIFVQSVPLDSEDCDKMIHVPFPFEDLECETAFCNHPAIRKLREQLSLDFTAGYVILLKKSGKSITTSGSDISGRTKAESNIMQDVSLPKDGGLLKKLLPGTSFDDFLLLDCVFGVPLFNSVLNETICKRILGRGILEQQNRSNIQNSNKQVVGMINELIDTANNGLIKGSQLFVEGTDQQRNAQIVPPVRAIFFDSSQLISYGTI | not soluble |
| MDALVSTKANSIAYQRSTVIIPAYNEEKRLMPVLYELCEYIRSNSLEWKVMVSIDGDDGTESNVKIMMQEYSFLSYSKGKGRGGKGAAIKRAITSATGEFVILMDADGSVPLKEIVKALDLTNYYDLIIFDRYSNRGNRIPFIRRFPSRGFNKLVRIFLGLKINDTQCGYKIIKREYAQRAFNKITISNAFFDVALLYYLKKERAKYIEIPVEYNYDRNSKFHVVELVLGEGISLIAFRIRNSRFYKYVPEKLISLYYRKFRWILEHHHHHH | soluble |
| MGSDKIHHHHHHMIPPVPQKGRGTAHNPHNRFAPGHSVAEDDGWYQEVPQTQGTEVRIETAKSVISRNTSPDLPFDRSINPYRGCEHGCIYCYARPSHAYWDLSPGLDFETKLIAKTNAAEVLAQQLSKPGYVCAPINLGSNTDPYQPIEREQLLTRRLLEVLLRFRHPVTIVTKGSLVLRDLDLLAEMARQRLARVMISLTTLDDGLKRVLEPRAASPGARLRAIRVLREAGVPVGVLCSPMIPMINDSELERLLEAAKEAGAQSAAYMMLRLPLEVAPLFEQWLQDHYPQRAAHVLSLIRQSRGGELYDSRFGVRMRGEGVFAELLAQRFAKAMKRLDFEGREAQELDCSAFCPPGGQMALF | not soluble |
| MGSDKIHHHHHHMAKTIKLILSDIDGTILDNNHQVDAHLRDTITELKKESIPFVLASARSPHGMFPIAQELNLGANPIACYNGALIVEGNKEHYQTLIEHGLSKADVKKIVALIKKQFPHISINFYSGGDWIVEEIDQWVQIEADITKESPDIRNFDTLLTDDAIPIHKLLLIANAQAIQEFFTYLKRVNFEDASFYLSKDNYLEVTSQSVSKENALLEIAKYYDISLSQTMAIGDNYNDIPMLKLAGLGVAMANAPQAVKNEADIETVSNNDNGVSKVIEDYVLI | not soluble |
| DIELTQSPPSLPVSLGDQVSISCRSSQSLVSNNRRNYLHWYLQKPGQSPKLVIYKVSNRFSGVPDRFSGSGSGTDFTLKISRVAAEDLGLYFCSQSSHVPLTFGSGTKLEIKR | soluble |
| MEIERINEHTVKFYISYVDIEERGFDREEIWYNRERSEELFWEMMDEVHGESDFSLDGPLWIQVQALEKGLEVVVTKAQLSKDGSKLELPLPEEKWREFSLSADEKVESLFGHHFHFGQNGDAEEREEQDVLRFILSFKDIEDVISLAHRADFSRLSNRLFQFEGRYYLFVEFDERYTEQEVDNMLSLLLEYGSDSQLTIYRLEEYGTEIMGDNALETIKTYFPAS | not soluble |
| MPRFSCYEVRSEFPELERGIVYLDNAASTLKPRRVVEAMREFSYRSYANVHRGVHRLSMEASKAYEDAHEVVARLVGGSWDEVVFTRNTTEAMQLAALTLAYNGLLRGGEVLVTAADHHSTLLPWVRAARLGGGRARILPLDGRGVPRWDLLEDYITEDTRAVAVGHVSNVTGVVAPVEDIVKAAKKVGALVVLDSAQGVPHLPVDFRRMGVDMAAFSGHKMLGPTGIGVLWARRDLLEELEPPLGGGGTVSRVRLQGGSVEIEWEEPPWKFEAGTPPIIEAVGLAEAANMLMEIGMEHVARHEDELTSHTMKLLEPLYSEGLIRYVGPDKPGERHGIVSITTHLKSPDELGLLLDRRGIAVRTGLHCAHILHDHVDASMGSVWASFYIYNCKEDAERLAEALEEILTTRR | soluble |
| MKFLPYIFLLCCGLWSTISFADEDYIEYRGISSNNRVTLDPLRLSNKELRWLASKKNLVIAVHKSQTATLLHTDSQQRVRGINADYLNLLKRALNIKLTLREYADHQKAMDALAEGEVDIVLSHLVTSPPLNNDIAATKPLIITFPALVTTLHDSMRPLTSPKPVNIARVANYPPDEVIHQSFPKATIISFTNLYQALASVSAGHNDYFIGSNIITSSMISRYFTHSLNVVKYYNSPRQYNFFLTRKESVILNEVLNRFVDALTNEVRYEVSQNWLDTGNLAFLNKPLELTEHEKQWIKQHPNLKVLENPYSPPYSMTDENGSVRGVMGDILNIITLQTGLNFSPITVSHNIHAGTQLSPGGWDIIPGAIYSEDRENNVLFAEAFITTPYVFVMQKAPDSEQTLKKGMKVAIPYYYELHSQLKEMYPEVEWIQVDNASAAFHKVKEGELDALVATQLNSRYMIDHYYPNELYHFLIPGVPNASLSFAFPRGEPELKDIINKALNAIPPSEVLRLTEKWIKMPNVTIDTWDLYSEQFYIVTTLSVLLVGSSLLWGFYLLRSVRRRKVIQGDLENQISFRKALSDSLPNPTYVVNWQGNVISHNSAFEHYFTADYYKNAMLPLENSDSPFKDVFSNAHEVTAETKENRTIYTQVFEIDNGIEKRCINHWHTLCNLPASDNAVYICGWQDITETRDLINALEVEKNKAIKATVAKSQFLATMSHEIRTPISSIMGFLELLSGSGLSKEQRVEAISLAYATGQSLLGLIGEILDVDKIESGNYQLQPQWVDIPTLVQNTCHSFGAIAASKSIALSCSSTFPEHYLVKIDPQAFKQVLSNLLSNALKFTTEGAVKITTSLGHIDDNHAVIKMTIMDSGSGLSQEEQQQLFKRYSQTSAGRQQTGSGLGLMICKELIKNMQGDLSLESHPGIGTTFTITIPVEISQQVATVEAKAEQPITLPEKLSILIADDHPTNRLLLKRQLNLLGYDVDEATDGVQALHKVSMQHYDLLITDVNMPNMDGFELTRKLREQNSSLPIWGLTANAQANEREKGLSCGMNLCLFKPLTLDVLKTHLSQLHQVAHIAPQYRHLDIEALKNNTANDLQLMQEILMTFQHETHKDLPAAFQALEAGDNRTFHQCIHRIHGAANILNLQKLINISHQLEITPVSDDSKPEILQLLNSVKEHIAELDQEIAVFCQKND | not soluble |
| MTEVILFFFATPKRATFSLELTSMKKLATLLAGSACALSLLSGTAAAEDKELVFMNWGPYINSGILEQFTKETGIKVIYSTYESNETLYAKLKTHNQGYDLVVPSTYFVAKMRDEGMLQKIDKSKLSNFKNLDSNYLDKPYDPNNDYSIPHVVAITGLAVNTDMYDPNDFQSWGDLWKPELKGQLMLMDDTREVFHIALRKLGYSGNSTDDKQIDEAYAELQKLMPNVLVFNSDNPAAPYLSGEVGLGMLWNGSAAAAQKEGLPIKLVFPKEGGIGWVDNFAISSGAKNVDAAHKMIDFLLRPEIAEQISRDTGYLTGVKASNDKFQDVAPLFPSQEDLDRVEWQSAVGDKTVKYEEYFMKLKAGQ | not soluble |
